For orientation: Ki means a measure of affinity in units of concentration, obtained from inhibition or displacement. The Km is the concentration of substrate that gives half-maximal velocity. In general, kcat refers to the maximal rate divided by the concentration of active sites. The term kcat/Km denotes the second-order rate constant that governs catalysis at low substrate concentration. By stoichiometry N is commonly meant a count of units in the complex or per binding partner.

Data set [1] deals with T1, glutamine synthetase (TcGS) (Trypanosoma cruzi, UniProt Q4CN04).
T1 construct: gene Tc00.1047053503405.10; recombinant His6-tagged TcGS (TcCLB.503405.10 starting at base pair 123), expressed in E. coli
The experiment in a line: enzyme inhibition kinetics of purified recombinant TcGS. In kind it is biochemical.

The test system of data set [2] is N[C@@H](CCC(=O)O)C(=O)O. The experiment in a line: purified protein. Particulars: Mg2+.
Data set [3] has as its system Nc1ncnc2c1ncn2[C@@H]1O[C@H](COP(=O)(O)OP(=O)(O)OP(=O)(O)O)[C@@H](O)[C@H]1O. The data set is described as follows: purified protein. Particulars: Mg2+.
In data set [4] the target is recombinant Trypanosoma cruzi glutamine synthetase (TcGS), His6-tagged (Trypanosoma cruzi). The experiment in a line: SEC; analytical size-exclusion chromatography of recombinant TcGS (elutions of the Ni-NTA column); mass estimated from a calibration of the column; TcGS followed in the fractions by Bradford, dot-blot, ELISA and GS activity.

In the case of `CS(=N)(=O)CCC(N)C(=O)O` (centres unmarked) [MS, Methionine sulfoximine], the Ki in data set [1] is 3.89 ± 0.04 µM.
For the compound “glutamine synthetase (TcGS) (Trypanosoma cruzi strain CL Brener)”, in data set [2], the Km was 440 ± 60 µM, the kcat was determined as 392 ± 9.5 s⁻¹ and the kcat/Km came to 890000 M⁻¹ s⁻¹. Further, in data set [3], the Km was 380 ± 100 µM, the kcat came to 396 ± 18.2 s⁻¹ and the kcat/Km was determined as 1.05e+06 M⁻¹ s⁻¹.
As to “recombinant Trypanosoma cruzi glutamine synthetase (TcGS), His6-tagged (enzyme)”, the stoichiometry N in data set [4] was 8.

The values above are taken from publication PMC5779702, “The glutamine synthetase of Trypanosoma cruzi is required for its resistance to ammonium accumulation and evasion of the parasitophorous vacuole during host-cell infection” (PLoS Neglected Tropical Diseases, 2018).
